# Experimental data: US20220227870A1 (Innovent, published 2022)
# How the values were obtained:
# h CD47 (Acrobiosystems) = target: T1, h CD47 (Acrobiosystems) (human, UniProt Q08722 19-139); assay: ForteBio Octet BLI; antibody loaded on AHC sensor, h CD47 100 nM in solution
# T1 construct: Bought soluble antigen; also called CD47 protein in solution
# Method: (§1) The anti-human IgG Fc biosensor AHC was immersed in each well containing the antibody solution, and immersed at room temperature for 600 seconds to load the samples. The sensor was then washed in SD buffer until it returned to the baseline, and then immersed in a well containing 100 μL of the antigen solution to monitor the association of the antibody with the antigen. The sensor was then transferred to a well containing 100 ul of SD buffer to monitor the antibody dissociation. The rotation speed was 400 rpm and the temperature was 30° C. The background-corrected association and dissociation curves were plotted by the Octet analysis software (ForteBio) to generate the association (k_{∞}) rate constant and dissociation (kdis) rate constant, which are then used to calculate the equilibrium dissociation constant (KD).
# [1] = target: T2, human CD47 expressed on the surface of cells (CHO-S-CD47 cells) (human, UniProt Q08722 19-323); assay: FACS on CHO-S cells overexpressing human CD47, PE-conjugated anti-human Fc detection, MFI
# T2 construct: whole, on cells; also called CHO-S cells overexpressing CD47; CHO-CD47
# Method: The cell suspension was centrifuged at 400 g on a centrifuge for 5 minutes to remove the cell medium. […] The cell suspension was centrifuged at 400 g for 5 minutes, and then the supernatant was removed, and the cells were washed with PBS to remove the unbound antibodies. The obtained cell suspension was centrifuged at 400 g for 5 minutes to remove PBS. 100 μL of the solution of PE-conjugated anti-human Fc antibody (Jackson Immuno Research) diluted at a ratio of 1:200 was added to each well, and the cells were incubated in the dark on the ice for 30 minutes. Then the cell suspension was centrifuged at 400 g for 5 minutes and the supernatant was removed. The cells were washed with PBS to remove the unbound PE-conjugated anti-human Fc antibody. The cells were resuspended with 100 μL of PBS, and the binding of the antibodies to cells was assayed by FACS.
# [2] = target: T3, rh PD-L1 (Acrobiosystems) (human, UniProt Q9NZQ7 19-238); assay: ForteBio Octet BLI; antibody loaded on AHC sensor, antigen 100 nM in solution; note: N.B: Not detectable
# T3 construct: Bought soluble antigen; also called PD-L1 protein in solution
# Method: as §1
# [3] = target: T4, tumor cells H292 (ATCC), co-incubated with human red blood cells; assay: flow cytometry; CFSE-labelled H292 cells co-incubated 1:20 with human red blood cells; antibody 0.014 nM
# T4 construct: also called H292 cells
# Method: (§2) The mixture was then gently added to 4 tubes each with 12.5 ml of FiColl (Thermo). The samples were centrifuged at 400 g for 30 min with zero deceleration. The upper serum and PBMC were removed to obtain red blood cells in the lowest layer.
# (§3) Tumor cells H292 (ATCC) were fluorescently labeled with fluorochrome CFSE according to the instructions of CellTrace™ CFSE Cell Proliferation Kit (Invitrogen, catalog number: C34554). The labeled tumor cells were co-cultured with the aforementioned isolated human red blood cells at a ratio of 1:20 in terms of cell number, and meanwhile, tested antibody solutions of different concentrations were added. The cells were incubated at 4° C. for 30 min. […] The cells were washed at least twice with PBS and analyzed by flow cytometry.
# [4] = target: T4, tumor cells H292 (ATCC), co-incubated …; assay: flow cytometry; CFSE-labelled H292 cells co-incubated 1:20 with human red blood cells; antibody 0.041 nM
# Method: as §3
# [5] = target: T4, tumor cells H292 (ATCC), co-incubated …; assay: flow cytometry; CFSE-labelled H292 cells co-incubated 1:20 with human red blood cells; antibody 0.123 nM
# Method: as §3
# [6] = target: T4, tumor cells H292 (ATCC), co-incubated …; assay: flow cytometry; CFSE-labelled H292 cells co-incubated 1:20 with human red blood cells; antibody 0.370 nM
# Method: as §2, §3
# [7] = target: T4, tumor cells H292 (ATCC), co-incubated …; assay: flow cytometry; CFSE-labelled H292 cells co-incubated 1:20 with human red blood cells; antibody 1.111 nM
# Method: as §3
# [8] = target: T4, tumor cells H292 (ATCC), co-incubated …; assay: flow cytometry; CFSE-labelled H292 cells co-incubated 1:20 with human red blood cells; antibody 3.333 nM
# Method: as §2, §3
# [9] = target: T4, tumor cells H292 (ATCC), co-incubated …; assay: flow cytometry; CFSE-labelled H292 cells co-incubated 1:20 with human red blood cells; antibody 10.000 nM
# Method: as §2, §3
binder,measurement,setting,value
"anti-CD47 antibody ADI-29341 (antibody, V domains shown, captured on an anti-human IgG Fc sensor; also called parent antibody (anti-CD47)) VH: QVQLQESGPGLVKPSETLSLTCTVSGGSIEHYYWSWIRQPPGKGLEWIGYIYYSGSTNYNPSLKSRVTISVDTSKNQFSLKLSSVTAADTAVYYCARGKTGSAAWGQGTLVTVSS VL: DIQMTQSPSSVSASVGDRVTITCRASQGISRWLAWYQQKPGKAPKLLIYAASSLQSGVPSRFSGSGSGTDFTLTISSLQPEDFATYYCQQTVSFPITFGGGTKVEIK",Kd,h CD47 (Acrobiosystems),2.32 nM
same,koff,h CD47 (Acrobiosystems),0.0018 s⁻¹
same,kon,h CD47 (Acrobiosystems),774000 M⁻¹ s⁻¹
same,EC50 (read off the curve),[1],~1 nM
same,binding result,[2],no binding (tested: 100 nM)
same,proportion of antibody binding to H292 cells,[3],3.59%
same,proportion of antibody binding to H292 cells,[4],17.7%
same,proportion of antibody binding to H292 cells,[5],5.74%
same,proportion of antibody binding to H292 cells,[6],14.4%
same,proportion of antibody binding to H292 cells,[7],6.15%
same,proportion of antibody binding to H292 cells,[8],8.42%
same,proportion of antibody binding to H292 cells,[9],3.9%
